# From patent CN108264566A (SHANGHAI XINBAINUO BIOTECHNOLOGY CO LTD, dated 2018)
# B1: 人类CD27-hFc融合蛋白 (Fc fusion)
# chain: ATPAPKSCPERHYWAQGKLCCQMCEPGTFLVKDCDQHRKAAQCDPCIPGVSFSPDHHTRPHCESCRHCNSGLLVRNCTITANAECACRNGWQCRDKECTECDPLPNPSLTARSSQALSPHPQPTHLPYVSEMLEARTAGHMQTLADFRQLPARTLSTHWPPQRSLCSSDFIR
# notes: Bought fusion protein; also called 重组蛋白CD27-hFc; not shown: human Fc (hFc) of the bought fusion protein
# B2: 人类ICOS-hFc融合蛋白 (Fc fusion)
# chain: EINGSANYEMFIFHNGGVQILCKYPDIVQQFKMQLLKGGQILCDLTKTKGSGNTVSIKSLKFCHSQLSNNSVSFFLYNLDHSHANYYFCNLSIFDPPPFKVTLTGGYLHIYESQLCCQLK
# notes: Bought fusion protein; also called 重组蛋白ICOS-hFc; not shown: human Fc (hFc) of the bought fusion protein
# B3: 人类GITR-hFc融合蛋白 (Fc fusion)
# chain: QRPTGGPGCGPGRLLLGTGTDARCCRVHTTRCCRDYPGEECCSEWDCMCVQPEFHCGDPCCTTCRHHPCPPGQGVQSQGKFSFGFQCIDCASGTFSGGHEGHCKPWTDCTQFGFLTVFPGNKTHNAVCVPGSPPAEP
# notes: Bought fusion protein; also called 重组蛋白GITR-hFc; not shown: human Fc (hFc) of the bought fusion protein
# B4: 人类OX40-hFc融合蛋白 (Fc fusion)
# chain: LHCVGDTYPSNDRCCHECRPGNGMVSRCSRSQNTVCRPCGPGFYNDVVSSKPCKPCTWCNLRSGSERKQLCTATQDTVCRCRAGTQPLDSYKPGVDCAPCPPGHFSPGDNQACKPWTNCTLAGKHTLQPASNSSDAICEDRDPPATQPQETQGPPARPITVQPTEAWPRTSQGPSTRPVEVPGGRA
# notes: Bought fusion protein; also called 重组蛋白OX40-hFc; not shown: human Fc (hFc) of the bought fusion protein
# How the values were obtained:
# CD3-CD70BsM_D = biological target: T1, CD3-CD70BsM_D; test: ELISA, plate coated with 1 μg/ml CD27-hFc, binder titrated from 10 μg/ml
# T1 construct: Glycosylated, disulfide-linked homodimer through the IgD hinge linker; made in CHO-S cells; also called 二聚体形式的抗CD3/CD70双特异性分子
# CD3-CD70BsM_M = biological target: T2, CD3-CD70BsM_M; test: as above
# T2 construct: made in CHO-S cells; also called 单体形式的抗CD3/CD70双特异性分子
# CD3-B7RP-1BsM_M = biological target: T3, CD3-B7RP-1BsM_M; test: ELISA, plate coated with 1 μg/ml ICOS-hFc, binder titrated from 10 μg/ml
# T3 construct: made in CHO-S cells; also called 单体形式的抗CD3/B7RP-1双特异性分子
# CD3-B7RP-1BsM_D = biological target: T4, CD3-B7RP-1BsM_D; test: as above
# T4 construct: Glycosylated, disulfide-linked homodimer through the IgD hinge linker; made in CHO-S cells; also called 二聚体形式的抗CD3/B7RP-1双特异性分子
# CD3-GITRL BsM_M = biological target: T5, CD3-GITRL BsM_M; test: ELISA, plate coated with 1 μg/ml GITR-hFc, binder titrated from 10 μg/ml
# T5 construct: made in CHO-S cells; also called 单体形式的抗CD3/GITRL双特异性分子
# CD3-GITRL BsM_D = biological target: T6, CD3-GITRL BsM_D; test: as above
# T6 construct: Glycosylated, disulfide-linked homodimer through the IgD hinge linker; made in CHO-S cells; also called 二聚体形式的抗CD3/GITRL双特异性分子
# CD3-OX40L BsM_D = biological target: T7, CD3-OX40L BsM_D; test: ELISA, plate coated with 1 μg/ml OX40-hFc, binder titrated from 10 μg/ml
# T7 construct: Glycosylated, disulfide-linked homodimer through the IgD hinge linker; made in CHO-S cells; also called 二聚体形式的抗CD3/OX40L双特异性分子
# CD3-OX40L BsM_M = biological target: T8, CD3-OX40L BsM_M; test: as above
# T8 construct: made in CHO-S cells; also called 单体形式的抗CD3/OX40L双特异性分子
binder,measurement,setting,value
B1,binding result,CD3-CD70BsM_D,binds
same,binding result,CD3-CD70BsM_M,binds
B2,binding result,CD3-B7RP-1BsM_M,binds
same,binding result,CD3-B7RP-1BsM_D,binds
B3,binding result,CD3-GITRL BsM_M,binds
same,binding result,CD3-GITRL BsM_D,binds
B4,binding result,CD3-OX40L BsM_D,binds
same,binding result,CD3-OX40L BsM_M,binds
